Results taken from the DeepSol protein solubility set.

Test: soluble on expression in E. coli; label from the status in PepcDB or PDB records
In the case of “MKEKIPFYNEKEFNEMMKKTKKGTFSGWYIINPENNSVEFSGSFNRQFKLNKPIIPVNTEYVTRKEFNEYKDSNDQRLIKIETTLTAQGEQINKLTQTVEKQGEQIRELQVEQKAQGEQIKAQGETLKLILQTLQKMSDRLDKIDPPK”, the “soluble on expression in E. coli” value is reported as “soluble”. In the case of “MKELETRIIDIDVEKLRETLNKLGAKNVKRENQTNDIFDFPDRKLLDKKGYARIRTVEDLINNKTVYFMTTKKMLSQDKFKVMEENETIIEDGAMGKNIFKSLGLELFETIKKYRESYKYKDSLIEIDINDPSFCPFPYIEIETSSEEKLNEILIDLGYSMEDTTSKTIYEILKDKGISPDSNKKGLLEHHHHHH”, the “soluble on expression in E. coli” value is reported as “soluble”. With “MKENAVRRANDPKRREKIIQATLEAVKTYGVHAVTHRKIAAIAQVPLGSMTYYFAGMDALLSEAFTLFTENMSRQYQDFFAQVTDAEGACQAITEMIYGSQVTTPDNMALMYQLYAYASDKPALKIVMQNWMQRSQNTLAQWFDAQTARALDAFIEGMTLHFVTDRTPLAREAILQMVKRIAGVSMSCHSALGNKKPTNLEPKWRG” the “soluble on expression in E. coli” value was “not soluble”. For “MKETTIYGRLVMAVKNTAQVVIGGKIITLGGYESEEYFQKVASYINNKIAELSEMPGYTRQPVETKHTLLSLNVTDDYFKAKKQAEIFEQDLQQKDQEMYELKHELIALRMKIEETEKNAQEAQQQKELLEGKVKELNDEIDKLLK”, the “soluble on expression in E. coli” value was “not soluble”. With “MKFDFPQVDLPCEILAWNDVTEDILNIYKQSCRLKAGIFAICTEGKMTATINLIDYEIKPNDLITLLPGTIIQFRERTEKVRLCFAGFSSECVERINLIKSMVSSFSKITECPIVELQEDIASYLIDYFSLLARVTCDEKLSLPSEMTEVSLRSILTAVGLIYQRYSSKNHNTNRKEEICRELVGLVTEHYTEERRAQFYADKLGISLQHLSTTVKQVTGRNVLDVIAYVVIIDAKAKLKSSNMTIQEIAYSLNFPSASFFGKYFRRYVGMSPLEFRNS” the “soluble on expression in E. coli” value was “not soluble”. For “MKFEDLLATNKQVQFAHAATQHYKSVKTPDFLEKDPHHKKFHNADGLNQQGSSTPSTATDANAASTASTHTNTTTFKRHIVAVDDISKMNYEMIKNSPGNVITNANQDEIDISTLKTRLYKDNLYAMNDNFLQAVNDQIVTLNAAEQDQETEDPDLSDDEKIDILTKIQENLLEEYQKLSQKERKWFILKELLLDANVELDLFSNRGRKASHPIAFGAVAIPTNVNANSLAFNRTKRRKINKNGLLENIL”, the “soluble on expression in E. coli” value was “soluble”. In the case of “MKFGIVARRDKEEALKLAYRVYDFLKVHGYEVVVDKETYEHFPHFKEGDVIPLDEFDVDFIVAIGGDGTILRIEHMTKKDIPILSINMGTLGFLTEVEPSDTFFALNRLIEGEYYIDERIKVRTYIDGENRVPDALNEVAILTGIPGKIIHMKYYVDGGLADEVRADGLVVSTPTGSTGYAMSAGGPFIDPRLDVILIAPLLPLPKTSVPMVIPGSSRIDIRMLTDREIILAIDGQYYEHLPPNVEITVVKSPRKTKFIRFTREIYPKYTIRIKERHMAGDPLEHHHHHH”, the “soluble on expression in E. coli” value is reported as “not soluble”. In the case of “MKFIFFVLYVLQFLPFALLHKIADLTGLLAYLLVKPRRRIGEINLAKCFSEWSEEKRKTVLKQHFKHMAKLMLEYGLYWYAPAGRLKSLVRYRNKHYLDDALAAGEKVIILYPHFTAFEMAVYALNQDIPLISMYSHQKNKILDEQILKGRNRYHNVFLIGRTEGLRALVKQFRKSSAPFLYLPDQDFGRNDSVFVDFFGIQTATITGLSRIAALANAKVIPAIPVREADNTVTLHFYPAWKSFPGEDAKADAQRMNRFIEDRVREHPEQYFWLHKRFKTRPEGSPDFY”, the “soluble on expression in E. coli” value is reported as “not soluble”. With “MKFLFIVQGEGRGHLTQAITLEEILRRNGHEVVEVLVGKSSSRRLPGFFNRNIHAPVKRFVSPNFLPTPANKRVSLMRSVAYNLVKLPVYINSINYIRQRIEASGADRVINFYELLTGLTYFLFRPSVPQICIGHQYLFLHKSFEFPKADKVSLALLKFFTVLTSLGAKERLALSFRHMKDDPQNHIRVIPPLLRREVTLHEPYSGDYIHGYMVNAGFSENVMKWHRQHPGIPLRFFWDKWEEEPVKRVDNTLSFYQLDDVEFLRQMAGCKAYASTAGFESVCEAMYLGKPILMVPAHIEQDCNAYDAEKSGAGIISSDFNLQQLLEFAKDYHPNRDFVYWVRGAEYTLLNLLESDSSNYQQVLFNEMYLVEEFI” the “soluble on expression in E. coli” value was “not soluble”. In the case of “MKFLLAVFLLAVCSLGESKKPKAQKVIYVQKVVPPQKQLSEYDLCKEQCRIESETQSNKERVELLKQEIDRAEQLLAEHNKHVDAPEIAPETYMEAGQVPPMRKASRYDHLKMAANKIVESTSELKNAVTGGGDN”, the “soluble on expression in E. coli” value is reported as “not soluble”. For “MKFLQFALLFFIICITTTDASKKTQRVLKKVGKRFSLSEFGVVQRLDYMWRTAETVEAARNHSAELVARLLLSQSSADNLKFQESADILYSLMDNNFEGKICGGDETLNFYQMSDYWKRQRKTYRRNEKENVTWRAYPIEDNAYNKFMVRFNSKSTWGYSATMIYVVHMRLLGEKKYSNYTLTKIEEVGACTEYGGVSLENTNLYELDPERLETRDKLLKHLQELFYTEQKVSEIPFDWIYSSASEKELKIEVCHGTELKKMAKKDFIKWWEWFQMMCRPVKGENEHTLVQITGGVYDRLVFRVTMLVHVGTEDIHPTEEFSFKLQFKYDVHGDKEWLINKFEVMCPTIAVPEADLMKKHALVYREIIGSRLQLMVNNPELWYNFAEAIVALTSPTYEVENCAGKGEEMEKGTDMYQLKHTFWKLNKDTHGRMEGYTLGKKNDISETGEKMWARIRIIWTPGNDKLVYDSRWTFYLEWNSDLQAFTIYKMILQCPTVARIGEIKYYSSLNKPTTNTTSQ”, the “soluble on expression in E. coli” value was “not soluble”. With “MKFPGQRKSKHYFPVKTRDPLLEQLTQQPQPFATYISGIDQTLVDIEAKVEDELLSRYGLPKGNSTLINDEQAHRLYTELKIHGLISDEFAGGTIGNTVHNYSILADDRSVLFGVMSQNIEVGSYAYRYLCNTSSKVDLNYLQPVDGPIGRCFTLISDCGERTFAISKGAMDKLTPEFIDKDVVQGSSALVLTAYLMRASGGDRITDAAMCAIEYAKAADVPVVLTLGTRFLIEEDPLWWQNFIKEHVTILAMNEDEGEALTGSRDPLLASEKALEWCDMVLTTAGPIGLYTAGYTEDSEKRETTHTLLPGAIPEFNRYEFSRPKLKSDCETPIKVYAHISPYMGGPEKIGNTNGAGDGALSALLHDLAANTFHKTNVPGSSKHKRDGLCYSSFSQICKYANRVAYEVLAQHSPRLSRGLPEREDSLEESYWER” the “soluble on expression in E. coli” value was “soluble”. For “MKFTIVIPIFNRVQYIPETLDSVIRQTYTDLEIICVDDCSSDRSPVLLQDYAKTDLRIKVLTHAKNKGLYLARKTGVLNASGDYILFLDCDDVLDLHAVEVIYNALCKNSVEVLEYGYHSIHANENTVPDSAITVDKLFSSLVYDRYPRAGTVWNKAYKTELLKNAFSKMSDFHAVMGEDFYESVIIAYYAKSYSSIDDVLVIYNDESGISNTRKNLASIQKDLDSVVAILNGFRFFFESYASEHKEAVLNIESYYIRYVYYNLILLKTNKTDRKMAVDLLKDYFSAEAAAPYFNKTKPAVTRDAVMYKIRAVIKRYISKKLREMIKKIIRRYDKKPQQK”, the “soluble on expression in E. coli” value was “not soluble”. With “MKGGAGVPDLPSLDASGVRLAIVASSWHGKICDALLDGARKVAAGCGLDDPTVVRVLGAIEIPVVAQELARNHDAVVALGVVIRGQTPHFDYVCDAVTQGLTRVSLDSSTPIANGVLTTNTEEQALDRAGLPTSAEDKGAQATVAALATALTLRELRAHS” the “soluble on expression in E. coli” value was “soluble”. In the case of “MKGKKVLITSGGCLEKWDQVRGHTNMAKGTIGRIIAEELLAKGAHVIYLHGYFAEKPSDVHRGLELHPFEGIVDLQDKMKSIISHEKVDAVIMAAAGSDWIVEKICDQDGNVLNMNGKISSDIAPIIHFQKAPKVLKQIKEWDPETVLVGFKLESDLNEEELFERAKNRMKEARANVMIANSPHSLYSRGAVHYVIGQDGKGKLCNGKDETAKEIVKSLEVLCNRVTAF”, the “soluble on expression in E. coli” value is reported as “not soluble”. With “MKGKSILSEGKQIQLATELVRLGARLQVLEASTTLSRERLVKLYKEVKGASPPKGMLPYSEDWFTGWQPNMHSSLFINIYNYITRYTKVRDIDAIIKSYQLYLEHIEANRLQRILSFTRAWTLVRFVESKVLSVTSCVKCTGNFLVHSLDIQSNHVCGLCHVPSRAGKTKRVAQEARAAQEAGAGELCVI” the “soluble on expression in E. coli” value was “not soluble”. In the case of “MKGNFVVSKEDWSLHRKGYDDQKRHQEKVKEAIKNNLPDLITEESIIMSNGRDVIKIPIRSLDEYKIRYNYEKNKHVGQGNGDSQVGDVVARDGSGEGQGPGKGQGAGDLPGQDYYEAEVSLMEIEEAFFSQLELPNLQRKELDQNVTQHIEFNDIRRTGLMGNIDKKRTMLAAFKRNAMNGKPGFYPIYREDLKFKTWNEVVKPESKAVVLAMMDTSGSMGMWEKYMARSFFFWMTRFLRTKYETVEIAFIAHHTEAKVVTEEEFFTKGESGGTICSSAYRKALELIETKYSPSRYNIYPFHFSDGDNLTSDNARCVKLVQELMKVSNMFGYGEVNQYNRHSTLMSAYRNIKDEKFRYYILKQKSDVFHAMRTFFRKEESKQLV”, the “soluble on expression in E. coli” value is reported as “not soluble”. For “MKGVRSMMGNLVITIGRECGSAGRLIGQKLAADLGVKCYDKELLTLAAKNSGLCEELFKTHDEKPTSSFLYSLVMDTYSLGYNTSAYMDMPINHKIFLAQFDTIKKLAEEESCVIVGRCADYALADYPNTVSVFICGDEEDKIRHLMERHNVDEAKAKDIMIKTDKRRASYYNYYSSKRWGSCKSYDMCISSSAVGYDGAVDIIKEFAKKKQEFLKTKNYK”, the “soluble on expression in E. coli” value was “not soluble”. In the case of “MKGYFETNRIQHIIVDEAQNFHTEDGNWCEKAKGITQGGKACPRMFWIFLDYFQTSHLKESGLPDFELQYPKEELTQVVRNGDKIAEFLQQELGKIRDNPPCSIPRASLNIVHEFKWSQSISGTLKIKYLTSEKMVSYVANKCDVFLSKGYSPQDIAVLFSTDREKKAYEHMFLREMRKKRRASQMNDTSVCHSNMFDRIRRFSGLERSIVFGINPIATEQPISHNLLICLASRAMKYLYILYALTPEGQSSTVAC”, the “soluble on expression in E. coli” value is reported as “not soluble”. With “MKHFDFSLRIWPISLWFVKHSGVKNPMNEVIIREITSEDKEMFLCAMQSSQALHHPWVKAPIIPEEFDEYFSRYQKPNQKSYLLLSDNNLAGVFNISEIVRGYFQNAYLGFYVVAAYAGKGYMSTGLKLILTKVFKDMGLHRLEANIQPENTRSIWLVKKNGFRYEGFSPRYLRVNDVWQGHEHWAMTYEDFIKDNNEVLEKDHIDIVAYNTEWPLLAKAEMVKLRASFPANSVIDIQHVGSTAIPGMASKPIIDIQIAVRSLEEMKIIAVPILQKLDYEYWEDNPDPERMFFVKGMPPYGNGRTHHVHIVEASSRHWKGKTFFRDYLLSHPEAAEKYQQLKIKLAQEHKYDREQYTDAKSEFINQILKLAQN” the “soluble on expression in E. coli” value was “not soluble”. In the case of “MKHHHHHHQGKITLYEDRGFQGRHYECSSDHTNLQPYLSRCNSARVDSGCWMLYEQPNYSGLQYFLRRGDYADHQQWMGLSDSVRSCRLIPHSGSHRIRLYEREDYRGQMIEFTEDCSCLQDRFRFNEIHSLNVLEGSWVLYELSNYRGRQYLLMPGDYRRYQDWGATNARVGSLRRVIDFS”, the “soluble on expression in E. coli” value is reported as “soluble”. For “MKHICLYFQIHQPFRLKRYRFFDIGNDHYYYDDFRNEEIMRRITQKCYLPANLLLKEIIAEHPEFRVAFSISGTALEQLESYSPEALDTFRDLAETGCVEFLAETYAHSLSSLYDPEEFYNQTMIHSRRMEELFGVKPRVLRNTELIFSDNIATQVAEMGFQGMLTEGAKHILGWKSPNYLYKAGSAPELSLLLRNPRLSDAISAMFTRYDWNEYPLTADKMIRWIEETPEEEQIFNLFMNYEVLGSLHPQESGIFDFFRALPSLAKKSEGVKFATPSELIESSSPVAKFSSIYPISWVGEEKDTGTWLGNVLQQGACDKLEQWGERVRMIDDQRMLQDWLYLQSADHFYYMKTRGGDAGNFSPYETPYDAFNNYMNVLSDFLLRVEARYPSTIENEELKALLTTIRNQDKQIKKLEETIKRQKTKTT”, the “soluble on expression in E. coli” value was “not soluble”.
